Assay [1] has as its target T1, Cyno TROP2 Full length (cynomolgus monkey, UniProt P09758 31-323 (human entry)).
T1 chain: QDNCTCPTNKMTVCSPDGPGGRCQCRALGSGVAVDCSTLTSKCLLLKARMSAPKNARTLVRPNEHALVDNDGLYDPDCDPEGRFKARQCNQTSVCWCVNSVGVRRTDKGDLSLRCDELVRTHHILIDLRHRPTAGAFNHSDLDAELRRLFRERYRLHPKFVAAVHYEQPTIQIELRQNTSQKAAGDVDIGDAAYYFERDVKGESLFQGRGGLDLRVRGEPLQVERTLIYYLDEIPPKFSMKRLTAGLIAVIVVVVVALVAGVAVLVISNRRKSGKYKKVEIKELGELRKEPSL
Nature of the assay: cell-based or functional assay.

For assay [2], the target named is T2, Human TROP2 Full length (human, UniProt P09758 31-323).
T2 sequence: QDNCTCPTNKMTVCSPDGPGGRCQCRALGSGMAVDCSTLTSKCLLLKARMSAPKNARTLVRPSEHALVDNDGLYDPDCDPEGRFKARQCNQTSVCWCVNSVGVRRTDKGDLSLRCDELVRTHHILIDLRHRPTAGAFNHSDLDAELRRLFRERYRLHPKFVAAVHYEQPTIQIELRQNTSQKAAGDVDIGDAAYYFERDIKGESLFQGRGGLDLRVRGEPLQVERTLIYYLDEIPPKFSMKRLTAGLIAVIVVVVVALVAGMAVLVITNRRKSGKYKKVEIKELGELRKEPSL
In words: cell-based or functional assay.

For assay [3], the target named is T3, Human TROP2 ECD (31-274 AA), biotinylated (human, UniProt P09758 31-274, biotinylated (site not stated)).
T3 construct: also called tumor-associated calcium signal transducer 2; Human TROP2-biotin
T3 sequence: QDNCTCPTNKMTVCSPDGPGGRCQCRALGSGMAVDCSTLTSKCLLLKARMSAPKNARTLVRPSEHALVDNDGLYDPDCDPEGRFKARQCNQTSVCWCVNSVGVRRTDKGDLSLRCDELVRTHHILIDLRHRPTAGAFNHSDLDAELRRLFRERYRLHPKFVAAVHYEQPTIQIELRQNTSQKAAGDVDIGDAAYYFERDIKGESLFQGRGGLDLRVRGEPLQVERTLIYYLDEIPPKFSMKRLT
Nature of the assay: ELISA on immobilized TROP2. A general note: In an ELISA, binding on a coated surface is turned into a signal by an enzyme label.

Assay [4] has as its target T3, Human TROP2 ECD (31-274 AA), …. In words: ELISA on immobilized TROP2. This is another data set of the same source.
Assay [5] shares this target. Nature of the assay: ELISA: biotinylated TROP2 captured on neutravidin plate, Fab titrated, HRP secondary antibody.
Assay [6] shares this target. In words: BLI (Octet), dissociation half-life from biotinylated human TROP2 ECD. In general terms: BLI is a label-free optical method that tracks binding on a fibre tip over time.
Assay [7] has the same target. In words: ELISA, biotinylated TROP2 ECD on neutravidin plate, Fab titrated.
The target is the same in assay [8]. Nature of the assay: ELISA, ratio of EC50 to that of TBD-1 wt.
The target is the same in assay [9]. In words: BLI (Octet), biotinylated human TROP2 ECD on SAX sensor, Fab 6.25-50 nM.

B1: PC-31 (bispecific antibody)
light: GGVDFCGLYHWPICYQGGGGSGGLSGRSDAGSPLGLAGSGGSDIQLTQSPSSLSASVGDRVSITCKASQDVSIAVAWYQQKPGKAPKLLIYSASYRYTGVPDRFSGSGSGTDFTLTISSLQPEDFAVYYCQQHYITPLTFGAGTKVEIKRTVAAPSVFIFPPSDEQLKSGTASVVCLLNNFYPREAKVQWKVDNALQSGNSQESVTEQDSKDSTYSLSSTLTLSKADYEKHKVYACEVTHQGLSSPVTKSFNRGEC
heavy: not shown
For B1, the “CyTROP2 HEK293 EC50 (pM)” value in [1] is over 100000 pM. Moreover, the “H292 Cytotoxicity EC50 (pM)” value in assay [2] was over 100000 pM.

B2: PC-32 (bispecific antibody)
light: GGVDFCGLYHWPICYQGGGGSGGLSGRSDAGSPLGLAGSGGSDIQLTQSPSSLSASVGDRVSITCKASQDVSIAVAWYQQKPGKAPKLLIYSASYRYTGVPDRFSGSGSGTDFTLTISSLQPEDFAVYYCQQHYITPLTFGAGTKVEIKRTVAAPSVFIFPPSDEQLKSGTASVVCLLNNFYPREAKVQWKVDNALQSGNSQESVTEQDSKDSTYSLSSTLTLSKADYEKHKVYACEVTHQGLSSPVTKSFNRGEC
heavy: not shown
With B2, in assay [1], the “CyTROP2 HEK293 EC50 (pM)” value stood at 35900 pM. In addition, the “H292 Cytotoxicity EC50 (pM)” value in assay [2] came to 28100 pM.

B3: PC-13 (bispecific antibody)
light: not shown
heavy: GGVDFCGLYHWPICYQGGGGSGGLSGRSDAGSPLGLAGSGGSQVQLQQSGSELKKPGASVKVSCKASGYTFTNYGMNWVKQAPGQGLKWMGWINTYTGEPTYTDDFKGRFAFSLDTSVSTAYLQISSLKADDTAVYFCAAGGFGSSYWYFDVWGQGSLVTVSSASTKGPSVFPLAPSSKSTSGGTAALGCLVKDYFPEPVTVSWNSGALTSGVHTFPAVLQSSGLYSLSSVVTVPSSSLGTQTYICNVNHKPSNTKVDKKVEPKSC
notes: anti-TROP2 R98A
One may read the EC50 as the concentration giving half of the maximal effect. A high value points to a less potent agent. With B3, the EC50 in assay [3] was 419 nM; in [4] it was over 1000 nM.

B4: PC-19 (bispecific antibody)
light: not shown
heavy: GGVDFCALYHWPICYQGGGGSGGLSGRSDAGSPLGLAGSGGSQVQLQQSGSELKKPGASVKVSCKASGYTFTNYGMNWVKQAPGQGLKWMGWINTYTGEPTYTDDFKGRFAFSLDTSVSTAYLQISSLKADDTAVYFCARGGFGSSYWYADVWGQGSLVTVSSASTKGPSVFPLAPSSKSTSGGTAALGCLVKDYFPEPVTVSWNSGALTSGVHTFPAVLQSSGLYSLSSVVTVPSSSLGTQTYICNVNHKPSNTKVDKKVEPKSC
notes: anti-TROP2 F108A
The molecule B4 had an EC50 in [4] of over 1000 nM.

B5: PC-23 (bispecific antibody)
light: not shown
heavy: GGVDFCGLYHWPICYQVGGGSGGLSGRSDAGSPLGLAGSGGSQVQLQQSGSELKKPGASVKVSCKASGYTFTNYGMNWVKQAPGQGLKWMGWINTYTGEPTYTDDFKGRFAFSLDTSVSTAYLQISSLKADDTAVYFCAAGGFGSSYWYFDVWGQGSLVTVSSASTKGPSVFPLAPSSKSTSGGTAALGCLVKDYFPEPVTVSWNSGALTSGVHTFPAVLQSSGLYSLSSVVTVPSSSLGTQTYICNVNHKPSNTKVDKKVEPKSC
notes: anti-TROP2 R98A
Take B5: the EC50 in assay [4] is over 1000 nM.

B6: TCE-4 (bispecific antibody)
light: not shown
heavy: QVQLQQSGSELKKPGASVKVSCKASGYTFTNYGMNWVKQAPGQGLKWMGWINTYTGEPTYTDDFKGRFAFSLDTSVSTAYLQISSLKADDTAVYFCARGGFGSSYWYADVWGQGSLVTVSSASTKGPSVFPLAPSSKSTSGGTAALGCLVKDYFPEPVTVSWNSGALTSGVHTFPAVLQSSGLYSLSSVVTVPSSSLGTQTYICNVNHKPSNTKVDKKVEPKSC
As to B6, the EC50 in assay [3] amounted to 7.29 nM; in assay [4], 2.5 nM.

B7: TBD-17 (anti-TROP2 Fab, HC S104A) (Fab, V domains shown)
VH: QVQLQQSGSELKKPGASVKVSCKASGYTFTNYGMNWVKQAPGQGLKWMGWINTYTGEPTYTDDFKGRFAFSLDTSVSTAYLQISSLKADDTAVYFCARGGFGSAYWYFDVWGQGSLVTVSS
VL: DIQLTQSPSSLSASVGDRVSITCKASQDVSIAVAWYQQKPGKAPKLLIYSASYRYTGVPDRFSGSGSGTDFTLTISSLQPEDFAVYYCQQHYITPLTFGAGTKVEIKR
notes: also called TBD-17 (HC S104A mutant)
For orientation: Kd means the equilibrium constant for the complex coming apart. High values mean a looser complex, low ones a tighter complex. For the molecule B7, the results for the EC50 in assay [5] and in [7] were 0.432 nM and 0.4 nM, respectively. In addition, in [6], the “t1/2” value was found to be 24 min. The “Fold shift in EC50 relative to wt” value in assay [8] amounted to 2 fold. In assay [9], this molecule returned a Kd of 0.9 nM.

B8: TBD-23 (anti-TROP2 Fab, HC V110A) (Fab, V domains shown)
VH: QVQLQQSGSELKKPGASVKVSCKASGYTFTNYGMNWVKQAPGQGLKWMGWINTYTGEPTYTDDFKGRFAFSLDTSVSTAYLQISSLKADDTAVYFCARGGFGSSYWYFDAWGQGSLVTVSS
VL: DIQLTQSPSSLSASVGDRVSITCKASQDVSIAVAWYQQKPGKAPKLLIYSASYRYTGVPDRFSGSGSGTDFTLTISSLQPEDFAVYYCQQHYITPLTFGAGTKVEIKR
Regarding B8, the EC50 is 0.236 nM in assay [5] and 0.2 nM in [7]. Also, the “t1/2” value in [6] came to 34 min. Besides, in [8], the “Fold shift in EC50 relative to wt” value worked out at 1 fold. The same molecule showed a Kd in assay [9] of 0.401 nM.

B9: TBD-21 (anti-TROP2 Fab, HC F108A) (Fab, V domains shown)
VH: QVQLQQSGSELKKPGASVKVSCKASGYTFTNYGMNWVKQAPGQGLKWMGWINTYTGEPTYTDDFKGRFAFSLDTSVSTAYLQISSLKADDTAVYFCARGGFGSSYWYADVWGQGSLVTVSS
VL: DIQLTQSPSSLSASVGDRVSITCKASQDVSIAVAWYQQKPGKAPKLLIYSASYRYTGVPDRFSGSGSGTDFTLTISSLQPEDFAVYYCQQHYITPLTFGAGTKVEIKR
notes: also called TBD-21 (HC F108A mutant)
Regarding B9, the EC50 in assay [5] turned out to be 4.11 nM; in [7], 4.1 nM. For the same molecule, in [6], the “t1/2” value was found to be 8 min. In addition, in assay [8], the “Fold shift in EC50 relative to wt” value stood at 20.5 fold. Also, binding in [9] was characterised by a dissociation constant (Kd) of 4.76 nM.

B10: TBD-22 (anti-TROP2 Fab, HC D109A) (Fab, V domains shown)
VH: QVQLQQSGSELKKPGASVKVSCKASGYTFTNYGMNWVKQAPGQGLKWMGWINTYTGEPTYTDDFKGRFAFSLDTSVSTAYLQISSLKADDTAVYFCARGGFGSSYWYFAVWGQGSLVTVSS
VL: DIQLTQSPSSLSASVGDRVSITCKASQDVSIAVAWYQQKPGKAPKLLIYSASYRYTGVPDRFSGSGSGTDFTLTISSLQPEDFAVYYCQQHYITPLTFGAGTKVEIKR
notes: also called TBD-22 (HC D109A mutant)
On to B10, for which the concentration giving a half-maximal response (EC50) in assay [5] and in assay [7] was 1.1 nM throughout. Moreover, in assay [6], the “t1/2” value stood at 33 min. Moreover, the “Fold shift in EC50 relative to wt” value in assay [8] turned out to be 5.5 fold. In addition, in [9], the dissociation constant Kd is 2.35 nM.

B11: TBD-20 (anti-TROP2 Fab, HC Y107A) (Fab, V domains shown)
VH: QVQLQQSGSELKKPGASVKVSCKASGYTFTNYGMNWVKQAPGQGLKWMGWINTYTGEPTYTDDFKGRFAFSLDTSVSTAYLQISSLKADDTAVYFCARGGFGSSYWAFDVWGQGSLVTVSS
VL: DIQLTQSPSSLSASVGDRVSITCKASQDVSIAVAWYQQKPGKAPKLLIYSASYRYTGVPDRFSGSGSGTDFTLTISSLQPEDFAVYYCQQHYITPLTFGAGTKVEIKR
As for B11, the EC50 was 52.2 nM in [5] and 52.3 nM in [7]. For the same molecule, the “t1/2” value in assay [6] was found to be 10 min. Also, the “Fold shift in EC50 relative to wt” value in assay [8] came to 262 fold. Also, binding in assay [9] was put at a Kd of 6.34 nM.

B12: PC-47 (bispecific antibody)
light: GGVDFCGLYHWPICYQGGGGSGGGGGSGGGGSGGASSGAGGSDIQLTQSPSSLSASVGDRVSITCKASQDVSIAVAWYQQKPGKAPKLLIYSASYRYTGVPDRFSGSGSGTDFTLTISSLQPEDFAVYYCQQHYITPLTFGAGTKVEIKRTVAAPSVFIFPPSDEQLKSGTASVVCLLNNFYPREAKVQWKVDNALQSGNSQESVTEQDSKDSTYSLSSTLTLSKADYEKHKVYACEVTHQGLSSPVTKSFNRGEC
heavy: not shown
Consider B12, for which the “CyTROP2 HEK293 EC50 (pM)” value in assay [1] worked out at 17300 pM. In assay [2], the “H292 Cytotoxicity EC50 (pM)” value is over 100000 pM.

These data come from patent publication US20230357429A1 (JANUX THERAPEUTICS, published 2023).
